Experimental findings from article doi:10.1101/2020.12.02.408153 (bioRxiv, 2020) are described below.

The test concerns the target SARS-CoV-2 open reading frame (ORF) 8 (SARS-CoV-2, UniProt P0DTC8 16-121). Nature of the test: SPR.

Sequence of SARS-CoV-2 open reading frame (ORF) 8 (P0DTC8 16-121): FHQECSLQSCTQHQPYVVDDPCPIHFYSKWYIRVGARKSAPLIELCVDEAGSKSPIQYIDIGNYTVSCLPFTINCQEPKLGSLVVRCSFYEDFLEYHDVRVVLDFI

B1: LL-37 (peptide)
peptide: LLGDFFRKSKEKIGKEFKRIVQRIKDFLRNLVPRTES
Regarding B1, the affinity, expressed as Kd, was 290 nM.
